Reference: publication PMC9897460

What was measured:
5FAM-NRIP1_1068 peptide = assay: fluorescence polarisation
[1] = molecular target: 5FAM-PGC1α_144 coactivator peptide; assay: fluorescence polarisation

Kd (5FAM-NRIP1_1068 peptide): 8.24 µM | Kd [1]: 2.01 µM
Substance: PPARγ ligand binding domain (LBD), delipidated (domain or fragment)
